Experimental data from patent publication US20240376151A1, “STAPLED PEPTIDES AND METHODS THEREOF” (FOG PHARMACEUTICALS, INC., priority 2022, published 2024).

Target: T1, RNF31 PUB domain (Homo sapiens, UniProt Q96EP0)
T1 construct: MBP-TEV (N, cleaved yes); made in house; host or cells: E. coli BL21 (DE3) pLysS
T1 sequence (Q96EP0 1-179): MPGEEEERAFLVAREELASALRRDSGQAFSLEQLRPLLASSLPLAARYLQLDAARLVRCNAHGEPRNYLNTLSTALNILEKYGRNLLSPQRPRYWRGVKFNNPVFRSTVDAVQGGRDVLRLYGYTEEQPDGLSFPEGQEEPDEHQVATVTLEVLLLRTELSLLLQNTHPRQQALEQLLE
Experiment: Phage Library Screening with NGS, RNF31 PUB domain
Type: binding
Settings: for Phage library screen NGS readout, Target Concentration 10 / Phage library screen NGS readout, Target Concentration 30 / Phage library screen NGS readout, Target Concentration 100 / Phage library screen NGS readout, Target Concentration 300 / Phage library screen NGS readout, Target Concentration 1000: RNF31 PUB domain clusters C41-C45; for Phage library screen NGS readout, BLANK: clusters C41-C45

[1] = target concentration 1000, first column
[2] = target concentration 1000, second column

Sequence	Phage library screen NGS readout, Target Concentration 10	Phage library screen NGS readout, Target Concentration 30	Phage library screen NGS readout, Target Concentration 100	Phage library screen NGS readout, Target Concentration 300	Phage library screen NGS readout, Target Concentration 1000 [1]	Phage library screen NGS readout, Target Concentration 1000 [2]	Phage library screen NGS readout, BLANK (column 1 of 5)	Phage library screen NGS readout, BLANK (column 2 of 5)	Phage library screen NGS readout, BLANK (column 3 of 5)	Phage library screen NGS readout, BLANK (column 4 of 5)	Phage library screen NGS readout, BLANK (column 5 of 5)
DPAWWNCLYAANTCVED	0	1	0	5	7	5	1	2	1	1	1
DPAWWNCLYAAYECNHA	1	0	0	3	9	5	0	0	0	2	0
DPAWWSCMYAAWTCDDT	1	10	0	7	14	15	0	2	2	1	1
DPAYDLCLNAAVACTYV	0	2	2	19	62	71	1	2	1	0	0
DPAYDWCLYAAEYCHTD	0	0	0	1	7	4	0	0	1	0	0
DPAYDWCLYAAYQCDQN	0	0	0	6	13	40	0	0	0	0	0
DPAYDWCMYAAHECVDQ	0	0	0	3	3	8	0	0	0	1	0
DPAYDWCMYAAYNCVED	2	1	1	6	41	38	0	0	0	0	0
DPAYDYCLYAAQDCVWW	0	0	0	1	6	5	0	0	0	0	0
DPAYDYCLYAAYDCTQT	0	0	1	5	48	38	1	0	0	1	0
DPAYEDCADAAMYCDMD	0	0	0	0	11	10	1	0	0	0	0
DPAYEDCAWAALYCDMT	0	0	0	10	70	64	0	0	0	0	0
DPAYRDCDWAALYCDDF	0	0	1	2	12	12	0	3	0	0	1
DPAYSLCISAAVECTYY	0	1	0	2	6	7	0	0	0	0	0
